The record followed here is CN116813768A.

Bounds are passed on as bounds.

This assay addresses 大熊猫TSHβ特异序列(TSHβ-1), synthetic peptide (大熊猫 (giant panda)). In words: indirect ELISA, TSHβ-1 peptide coated at 2 μg/mL, serial dilutions of purified antibody, OD450. For orientation: In an ELISA, binding on a coated surface is turned into a signal by an enzyme label.

B1: 大熊猫TSHβ单克隆抗体 (secreted by hybridoma cell line TSHB-A, CCTCC NO: C202282) (antibody, V domains shown)
VH: EVKLVESGGGLVKPGGSLKLSCAASGFIFRRYAMSWVRQTPEKRLEWVAAISSGGNIYYLDNVKGRFTISRDDARNILYLQMSSLRSEDTAMYYCARDDYDEDWYFDVWGAGTTVTVSS
VL: DVLMTQIPLSLPVSLGDQASISCRSSQSIVHSNGNTYLEWYLQKPGQSPNLLIYKVSNRFSGVPDRFSGSGSGTDFTLKISRVEAEDLGVYYCFQGSHLPPTFGGGTKLEIK
In turn, B1 registered a 效价 (ELISA titer) (fold dilution) of over 1e+06.
